Assay results taken from patent US8697366B2, “Anti-cancer drug screening method using RORα” (Seoul National University Industry Foundation, priority 2009, dated 2014).
“Also recorded” adds a separate entry of the source.

How the values were obtained:
Assay type in all cases: cell-based
[1] = tested on: HCT116 colon cancer cells; assay: Transwell cell migration assay; conditions: Wnt5a 100 ng/ml pretreatment 2 hr, compared to non-treated cells
Procedure: HCT116 cells stably expressing RORα, RORαS35A, or RORαS35D were used in Transwell cell migration assays along with control cells. Transwell cell migration assay was conducted as previously described (Kim et al., 2006). Cultured cells were pretreated with Wnt5a (100 ng/ml) for 2 hr, and 2.5×10^4HCT116 cells were loaded onto the top of a 24-well Transwell chamber assay plate (BD Biosciences). Conditioned McCoy's 5A medium containing 15% fetal bovine serum was added to the bottom chamber as a chemoattractant. After 22 hr incubation, the cells that had migrated to the lower chamber of the filter were fixed with 100% methanol, stained with DAPI, and quantified by counting the total number of cells in four different fields. All experimental studies were performed according to the manufacturer's protocols. Values are expressed as means±standard deviations for at least three independent experiments.

cyclin D1 promoter = assay: ChIP assay on the cyclin D1 promoter in HCT116 cells
Procedure: (A) The specificity of the antibody raised against phosphorylated RORαS35 peptide (SEQ ID NO:18) was assessed by dot blot analysis. (B) Treatment of TPA increased phophorylated RORα on S35 site as assessed by immunoprecipitation with anti-phospho-RORαS35 antibody. […] (D) Treatment of Go6976, a PKCα inhibitor, abolished TPA-dependent phosphorylation of RORα as assessed by immonoblotting with anti-phospho-RORαS35 antibody. (E) HCT116 cells were transfected with Flag-RORα WT, S35D, or S35A, and the cell extracts were immunoprecipitated with anti-Flag antibody followed by immunoblotting against anti-β-catenin antibody. (F) Coimmunoprecipitation assay of β-catenin with either RORαWT or S35A in HCT116 cells after treatment with TPA in the absence or presence of Go6976. (G) ChIP analysis on the cyclin D1 promoter after transfection with Flag-RORαWT, S35A, or S35D in HCT116 cells. (H) ChIP analysis on the cyclin D1 promoter in HCT116 cells after TPA treatment for indicated time. (I) ChIP assay was performed on the cyclin D1 promoter in the absence or presence of siRNA against PKCα with treatment of TPA for 90 min. (J) Real-time quantitative RT-PCR analysis of the cyclin D1 transcript in HCT116 cells in the presence of TPA for indicated time. (K) Knockdown effect of siRNA against RORα or PKCα was assessed in the expression of the cyclin D1 transcript in HCT116 cells.
(B) Cyclin D1 transcript was measured after introducing siRNAs against RORα or PKCα in the presence of Wnt5a in HCT116 cells. (C) Real-time quantitative RTPCR analysis of the cyclin D1 transcript in HCT116 cells after introducing RORα, S35A, or S35D in the presence of Wnt5a. (D) […] on the cyclin D1 promoter with treatment of either TPA or Wnt5a in HCT116 cells. Occupancy of the cyclin D1 promoter by phosphorylated RORα, β-catenin, RNA polymerase II, H3K9me2, H3K4me2, CBP, pCAF, p300, or SMRT was indicated. (E) Transwell cell migration assay for RORα, RORαS35A, or RORαS35D-expressing HCT116 cells with treatment of Wnt5a. Values are represented as mean±s.d. for three independent experiments. (F) The anchorage-independent growth of HCT116 cells expressing RORα, RORαS35A, or RORαS35D in soft agar. Values are expressed as mean±SEM for two experiments in 6 place wells. Colonies were counted in 10 different fields and total colony number/well was calculated. Representative image is shown for each group.
The ChIP, two-step ChIP, and shRNA-coupled ChIP assays were conducted as previously described (Baek et al., 2002; Kim et al., 2005).

RORα = assay: Phosphorylation of RORα in HCT116 cells (immunoprecipitation / immunoblot with anti-phospho-Ser or anti-phospho-RORαS35 antibody); conditions: HCT116 cells, treatment alone
Procedure: (A) Schematic representation of RORα showing the location of the N-terminal domain (NTD), the DNA-binding domain (DBD), the hinge region, the ligand-binding domain (LBD), and the AF-2 domain. […] HEK293 cells were cotransfected with plasmids expressing each His-tagged RORα deletion construct and β-catenin. Whole cell extracts (left panel) and Ni^+-NTA-agarose pulldown materials (right panel) were analyzed by immunoblotting against anti-β-catenin IgG or anti-Xpress IgG. (C) Illustration of the structure of deletion fragments of RORα(SEQ ID NO:17). (D) Interaction of each RORα deletion construct with HisMax-β-catenin was assessed by Ni^+-NTA-agarose pulldown assay. […] The phosphorylated peptide samples were analyzed by LC-MS analysis. […] Immunoprecipitation assay was conducted with anti-Flag antibody, and the phosphorylated RORα was detected by immunoblot analysis with anti-phospho-Ser antibody. […] The reaction samples were subjected to 12% SDSPAGE, and phosphorylated RORα was detected by autoradiography. […] The fluorescence-conjugated secondary antibody was visualized using fluorescence microscopy, and nuclear staining with DAPI was shown.
(A) The specificity of the antibody raised against phosphorylated RORαS35 peptide (SEQ ID NO:18) was assessed by dot blot analysis. (B) Treatment of TPA increased phophorylated RORα on S35 site as assessed by immunoprecipitation with anti-phospho-RORαS35 antibody. […]

cyclin D1 transcript = assay: Real-time quantitative RT-PCR of the cyclin D1 transcript in HCT116 cells
Procedure: The abundance of mRNA was detected by an ABI prism 7300 system with SYBR Green (molecular probes). Primer pairs were designed to amplify 90-150 bp mRNA specific fragments, and confirmed to be unique products by melting curve analysis. The PCR conditions were 95° C. (5 min) and 40 cycles of 95° C. (30 s), 57° C. (30 s), and 72° C. (30 s).
The quantity of mRNA was calculated using the ΔΔCt method and normalized by using primers to detect β-actin or HPRT. All reactions were performed in triplicates.

cyclin D1 = assay: Immunoblot of cyclin D1 expression in colon cancer cells
From the text: (§1) (A) Treatment of Wnt5a increased phosphorylated RORα and PKCα but decreased cyclin D1 expression as assessed by immunoblot analysis against each antibody.

PKCα = assay: Immunoblot against anti-phospho-PKCα antibody after Wnt5a treatment; conditions: anti-phospho-PKCα antibody (active form)
From the text: as §1

B1: Wnt5a: a noncanonical Wnt ligand (protein, UniProt P41221 62-380, looked up)
Protein Wnt-5a: IIGAQPLCSQLAGLSQGQKKLCHLYQDHMQYIGEGAKTGIKECQYQFRHRRWNCSTVDNTSVFGRVMQIGSRETAFTYAVSAAGVVNAMSRACREGELSTCGCSRAARPKDLPRDWLWGGCGDNIDYGYRFAKEFVDARERERIHAKGSYESARILMNLHNNEAGRRTVYNLADVACKCHGVSGSCSLKTCWLQLADFRKVGDALKEKYDSAAAMRLNSRGKLVQVNSRFNSPTTQDLVYIDPSPDYCVRNESTGSLGTQGRLCNKTSEGMDGCELMCCGRGYDQFKTVQTERCHCKFHWCCYVKCKKCTEIVDQFVCK
migration of HCT116 colon cancer cells [1]: attenuated | RNA polymerase II recruitment on the cyclin D1 promoter (cyclin D1 promoter): decreased | methylation of histone H3K9 on the cyclin D1 promoter (cyclin D1 promoter): increased methylation | recruitment of CBP, p300, and pCAF coactivators to the cyclin D1 promoter (cyclin D1 promoter): significantly decreased | recruitment of phosphorylated RORα on the cyclin D1 promoter (cyclin D1 promoter; anti-phospho-RORαS35 IgG): increased the recruitment | phosphorylation of RORα (RORα): increased phosphorylation | cyclin D1 transcript (cyclin D1 transcript): reduced | cyclin D1 expression (cyclin D1): downregulation; also recorded: decreased | phosphorylation of PKCα (PKCα): increased phosphorylation
